Reference: US20250145973, “CONDITIONED DNA MODIFYING ENZYME COMPRISING HETEROLOGOUS DNA BINDING DOMAIN” (Technische Universität Dresden Körperschaft des …, published 2025)

Target: Brec1-Zif268 (aa278) Rmut (synthetic)
Assay: cell_activity; 100 ug/ml L-arabinose, E. coli
Settings: tags: G-to-R in right linker

Chain of Brec1-Zif268 (aa278) Rmut (synthetic) (chain, as listed by the source): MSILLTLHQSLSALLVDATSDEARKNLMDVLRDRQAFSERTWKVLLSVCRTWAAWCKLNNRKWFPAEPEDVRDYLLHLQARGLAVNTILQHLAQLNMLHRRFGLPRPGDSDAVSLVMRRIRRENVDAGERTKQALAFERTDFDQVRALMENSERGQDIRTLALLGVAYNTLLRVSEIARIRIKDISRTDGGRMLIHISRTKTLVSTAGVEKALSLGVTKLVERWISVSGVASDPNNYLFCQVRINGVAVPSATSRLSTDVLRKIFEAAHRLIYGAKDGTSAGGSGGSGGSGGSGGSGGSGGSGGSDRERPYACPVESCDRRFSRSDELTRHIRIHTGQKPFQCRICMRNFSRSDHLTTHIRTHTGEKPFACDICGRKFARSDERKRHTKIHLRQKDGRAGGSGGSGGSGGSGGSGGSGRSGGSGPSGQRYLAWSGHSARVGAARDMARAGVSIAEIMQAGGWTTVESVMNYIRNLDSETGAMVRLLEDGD

B1: loxBTR-5-zif (A) (dsDNA)
DNA 1: AGCGTGGGCGTACTGAACCCACTGCTTAAGCCTCAATAAAGCTTGCCTTCAGTACGCCCACGCT
DNA 2: AGCGTGGGCGTACTGAAGGCAAGCTTTATTGAGGCTTAAGCAGTGGGTTCAGTACGCCCACGCT
binding signal: 2.5 fold vs Brec1-Zif268
